Common to all, as to details: both partners purified
Data set [1] deals with T1, protocadherin-15 EC1+2, wild type, His-tagged (mouse, UniProt Q99PJ1 27-259).
T1 construct: Protocadherin-15 (PCDH15), mouse, N-terminal fragment EC1+2; pET21a, NdeI/XhoI; predicted molecular weight 27.5 kDa; Held on the Ni-NTA chip by its His tag in SPR; also called pcdh15; pcdh15(WT); not shown: His6, C-terminal, kept
In words: SPR; Biacore T100, Ni-NTA chip, 6xHis pcdh15 immobilised, tag-free cdh23 0.25 to 30 μM injected, 25°C, SEC buffer; global kinetic fit with EVILFIT (distribution model). For orientation: In SPR one partner is held on a chip, and binding of the other changes the refractive index at the surface.

Data set [2] addresses T2, protocadherin-15 EC1+2 G16D, His-tagged (mouse, UniProt Q99PJ1 27-259, G16D).
T2 construct: Protocadherin-15 (PCDH15), mouse, N-terminal fragment EC1+2; Mutant of m12 made with QuikChange; Held on the Ni-NTA chip by its His tag in SPR; also called pcdh15(G16D); not shown: His6, C-terminal, kept
Described as above.

In data set [3] the target is T3, protocadherin-15 EC1+2 Q165L, His-tagged (mouse, UniProt Q99PJ1 27-259, Q165L).
T3 construct: Protocadherin-15 (PCDH15), mouse, N-terminal fragment EC1+2; Mutant of m12 made with QuikChange; Held on the Ni-NTA chip by its His tag in SPR; also called pcdh15(Q165L); not shown: His6, C-terminal, kept
Described as above.

The target in data set [4] is T1, protocadherin-15 EC1+2, wild type, …. Put plainly: SPR; Biacore T100, Ni-NTA chip, 6xHis pcdh15 immobilised, tag-free cdh23 0.25 to 30 μM injected, 25°C, SEC buffer; KD from binding isotherms (Biacore T100 evaluation software).
Data set [5] concerns the target T2, protocadherin-15 EC1+2 G16D, His-tagged. The description is as above.
The target of data set [6] is T3, protocadherin-15 EC1+2 Q165L, His-tagged. Described as above.
Data set [7] concerns the target T1, protocadherin-15 EC1+2, wild type, …. Put plainly: thermal scanning (thermal stability shift assay with SYPRO orange); pcdh15 fixed at 0.1 mg/mL (~4 μM), cdh23 0.1 to 0.5 mg/mL (~4 to 20 μM; cdh23:pcdh15 1:1 to 5:1); SEC buffer (20 mM Tris-HCl pH 7.5, 150 mM KCl, 50 mM NaCl, 2 mM CaCl2); 10 to 95°C in 0.2°C steps, 5 s equilibration; read-out: shift of the Tm of pcdh15 (ΔTm).

The target of data set [8] is T2, protocadherin-15 EC1+2 G16D, His-tagged. The description is as above.
In data set [9] the target is T3, protocadherin-15 EC1+2 Q165L, His-tagged. The description is as above.
In data set [10] the target is T4, protocadherin-15 EC1+2 I108N, His-tagged (mouse, UniProt Q99PJ1 27-259, I108N).
T4 construct: Protocadherin-15 (PCDH15), mouse, N-terminal fragment EC1+2; Deafness-related missense mutation put into the mouse fragment m12 with QuikChange; also called pcdh15(I108N)
The data set is described as above.

Where a chain is given by its changes, count along the chain named. In names and notes the source's numbering stands.

What is called Kd is the concentration at which binding is half-saturated. Usually koff stands for the rate constant with which the complex falls apart. High values mean a short-lived complex, low ones a long-lived complex. In general, kon refers to a measure of how fast the partners come together.

B1: cadherin-23 EC1+2 (residues 1-205), wild type, tagless (domain or fragment, mouse)
chain: QVNRLPFFTNHFFDTYLLISEDTPVGSSVTQLLARDMDNDPLVFGVSGEEASRFFAVEPDTGVVWLRQPLDRETKSEFTVEFSVSDHQGVITRKVNIQVGDVNDNAPTFHNQPYSVRIPENTPVGTPIFIVNATDPDLGAGGSVLYSFQPPSPFFAIDSARGIVTVIQELDYEVTQAYQLTVNATDQDKTRPLSTLANLAIIITDA
notes: an Ala residue included between CDH23 EC2 and the intein tag to improve cleavage efficiency; pTXB1, NdeI/SapI; That the added Ala stays on the C-terminus after thiol-induced cleavage, and that a start Met precedes residue 1, are surmised; also called tag-free cdh23; tagless cdh23
As to B1, the Kd was 3.72 ± 1.65 µM in data set [1]; 2000 ± 990 nM in data set [2]; 3.94 ± 1.11 µM in data set [3]; 1380 ± 360 nM in data set [4]; 1110 ± 70 nM in data set [5]; 2600 nM in data set [6]. The figures for the koff in data set [1], in data set [2] and in [3] were 0.2 ± 0.04 s⁻¹, 0.17 ± 0.01 s⁻¹ and 0.22 ± 0.04 s⁻¹, respectively. For the same molecule, the kon in data set [1] was 61900 M⁻¹ s⁻¹; in [2] it was 94800 M⁻¹ s⁻¹; in data set [3], 55900 M⁻¹ s⁻¹.

B2: cadherin-23 EC1+2 (residues 1-205) T15E, tagless (domain or fragment, mouse)
chain: B1 chain with T15E
notes: an Ala residue included between CDH23 EC2 and the intein tag to improve cleavage efficiency; Mutant of m8; That the added Ala stays on the C-terminus after cleavage is surmised; also called cdh23(T15E)
Take B2: the Kd in data set [1] is 2.05 ± 0.1 µM; in [2], 1420 ± 50 nM; in data set [4], 880 ± 60 nM; in [5], 620 ± 110 nM. Further, the koff in [1] was found to be 0.11 ± 0.01 s⁻¹; in [2], 0.09 s⁻¹. Also, the kon in data set [1] turned out to be 55100 M⁻¹ s⁻¹; in data set [2] it was 61400 M⁻¹ s⁻¹.

B3: cadherin-23 EC1+2 (residues 1-205) F7E, tagless (domain or fragment, mouse)
chain: B1 chain with F7E
notes: an Ala residue included between CDH23 EC2 and the intein tag to improve cleavage efficiency; Mutant of m8; That the added Ala stays on the C-terminus after cleavage is surmised; also called cdh23(F7E)
Consider B3, for which, in data set [1], the Kd was found to be 3.25 ± 0.25 µM, the koff is 0.22 ± 0.04 s⁻¹ and the kon worked out at 66000 M⁻¹ s⁻¹. In addition, the Kd in data set [4] came to 1580 ± 30 nM.

B4: cadherin-23 EC1+2 (residues 1-205) S76V, tagless (domain or fragment, mouse)
chain: B1 chain with S76V
notes: an Ala residue included between CDH23 EC2 and the intein tag to improve cleavage efficiency; Mutant of m8; That the added Ala stays on the C-terminus after cleavage is surmised; also called cdh23(S76V)
Take B4: in [1], binding was put at a Kd of 2.79 ± 0.88 µM, the koff was found to be 0.18 ± 0.01 s⁻¹ and the association rate constant (kon) turned out to be 68800 M⁻¹ s⁻¹. Moreover, binding in [4] was put at a Kd of 1160 ± 560 nM.

B5: cadherin-23 EC1+2, wild type, His-tagged (domain or fragment, mouse)
chain: QVNRLPFFTNHFFDTYLLISEDTPVGSSVTQLLARDMDNDPLVFGVSGEEASRFFAVEPDTGVVWLRQPLDRETKSEFTVEFSVSDHQGVITRKVNIQVGDVNDNAPTFHNQPYSVRIPENTPVGTPIFIVNATDPDLGAGGSVLYSFQPPSPFFAIDSARGIVTVIQELDYEVTQAYQLTVNATDQDKTRPLSTLANLAIIITD
notes: Cadherin-23 (CDH23), mouse, N-terminal fragment EC1+2; pET21a, NdeI/XhoI; predicted molecular weight 23.8 kDa; also called cdh23; cdh23(WT)
For the molecule B5, in data set [7], the “ΔTm of pcdh15 at cdh23:pcdh15 1:1” value was 1.8 ± 0.8 °C, the “ΔTm of pcdh15 at cdh23:pcdh15 2:1” value amounted to 3.2 ± 0.7 °C, the “ΔTm of pcdh15 at cdh23:pcdh15 3:1” value came to 4.1 ± 0.8 °C and the “ΔTm of pcdh15 at cdh23:pcdh15 4:1” value was 5 ± 0.7 °C. Moreover, the “ΔTm of pcdh15 at cdh23:pcdh15 5:1” value in data set [7] was 5.5 ± 0.8 °C. Moreover, in data set [8], the “ΔTm of pcdh15 at cdh23:pcdh15 1:1” value was 3 ± 0.5 °C, the “ΔTm of pcdh15 at cdh23:pcdh15 2:1” value came out at 4.5 ± 0.7 °C, the “ΔTm of pcdh15 at cdh23:pcdh15 3:1” value came out at 5.6 °C and the “ΔTm of pcdh15 at cdh23:pcdh15 4:1” value stood at 6.2 ± 0.1 °C. Further, in data set [8], the “ΔTm of pcdh15 at cdh23:pcdh15 5:1” value amounted to 6.8 ± 0.4 °C. In data set [9], the “ΔTm of pcdh15 at cdh23:pcdh15 1:1” value was 1.1 ± 0.4 °C, the “ΔTm of pcdh15 at cdh23:pcdh15 2:1” value is 1.7 ± 0.7 °C, the “ΔTm of pcdh15 at cdh23:pcdh15 3:1” value is 2.3 ± 0.6 °C and the “ΔTm of pcdh15 at cdh23:pcdh15 4:1” value amounted to 2.7 ± 0.9 °C. Also, the “ΔTm of pcdh15 at cdh23:pcdh15 5:1” value in data set [9] amounted to 3.7 ± 1.1 °C. In addition, in [10], the “ΔTm of pcdh15 at cdh23:pcdh15 1:1” value worked out at 0 °C, the “ΔTm of pcdh15 at cdh23:pcdh15 2:1” value worked out at 0.2 ± 0.2 °C, the “ΔTm of pcdh15 at cdh23:pcdh15 3:1” value amounted to 0.4 ± 0.1 °C and the “ΔTm of pcdh15 at cdh23:pcdh15 4:1” value turned out to be 0.4 ± 0.1 °C. For the same molecule, in data set [10], the “ΔTm of pcdh15 at cdh23:pcdh15 5:1” value stood at 0.5 °C.

The values above are taken from article PMC5736220, “Using thermal scanning assays to test protein-protein interactions of inner-ear cadherins” (PLoS ONE, 2017).
